Assay results: US20240158494A1 (Biogen, published 2024)
One block for each binder: values may come before it.

How the values were obtained:
[1] = molecular target: T1, human transferrin receptor 2 (TfR2) overexpressed on BaF3 cells (human, UniProt Q9UP52 1-801); assay: FACS on BaF3 cells overexpressing human TfR2
T1 construct: whole, on cells
T1 sequence (looked up): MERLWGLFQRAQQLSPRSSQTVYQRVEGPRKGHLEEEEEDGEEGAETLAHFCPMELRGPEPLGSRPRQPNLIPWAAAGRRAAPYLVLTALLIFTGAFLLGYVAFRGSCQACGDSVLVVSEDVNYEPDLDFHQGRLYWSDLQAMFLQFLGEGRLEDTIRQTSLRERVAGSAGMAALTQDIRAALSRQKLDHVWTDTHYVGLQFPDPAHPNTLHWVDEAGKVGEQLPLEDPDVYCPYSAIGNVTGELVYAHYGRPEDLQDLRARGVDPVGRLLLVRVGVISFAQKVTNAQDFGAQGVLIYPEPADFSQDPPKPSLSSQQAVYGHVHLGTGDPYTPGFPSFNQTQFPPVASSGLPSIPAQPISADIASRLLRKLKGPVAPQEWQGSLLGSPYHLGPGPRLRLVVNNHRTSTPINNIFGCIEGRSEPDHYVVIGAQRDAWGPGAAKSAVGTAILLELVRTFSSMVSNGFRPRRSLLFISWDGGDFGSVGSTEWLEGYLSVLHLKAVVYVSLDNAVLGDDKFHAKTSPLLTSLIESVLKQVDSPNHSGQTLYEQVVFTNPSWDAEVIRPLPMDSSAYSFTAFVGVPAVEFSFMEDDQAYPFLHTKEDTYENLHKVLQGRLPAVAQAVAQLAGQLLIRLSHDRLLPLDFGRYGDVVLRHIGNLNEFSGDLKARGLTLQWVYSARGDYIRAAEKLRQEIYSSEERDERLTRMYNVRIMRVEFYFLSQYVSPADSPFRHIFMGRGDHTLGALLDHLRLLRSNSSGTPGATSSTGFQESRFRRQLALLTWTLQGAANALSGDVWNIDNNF

[2] = molecular target: T2, mouse transferrin receptor (TfR1) (mouse, UniProt Q62351 1-763, limits assumed); assay: not described
T2 construct: form and assay not described; also called mouse TfR
T2 sequence (Q62351 whole entry): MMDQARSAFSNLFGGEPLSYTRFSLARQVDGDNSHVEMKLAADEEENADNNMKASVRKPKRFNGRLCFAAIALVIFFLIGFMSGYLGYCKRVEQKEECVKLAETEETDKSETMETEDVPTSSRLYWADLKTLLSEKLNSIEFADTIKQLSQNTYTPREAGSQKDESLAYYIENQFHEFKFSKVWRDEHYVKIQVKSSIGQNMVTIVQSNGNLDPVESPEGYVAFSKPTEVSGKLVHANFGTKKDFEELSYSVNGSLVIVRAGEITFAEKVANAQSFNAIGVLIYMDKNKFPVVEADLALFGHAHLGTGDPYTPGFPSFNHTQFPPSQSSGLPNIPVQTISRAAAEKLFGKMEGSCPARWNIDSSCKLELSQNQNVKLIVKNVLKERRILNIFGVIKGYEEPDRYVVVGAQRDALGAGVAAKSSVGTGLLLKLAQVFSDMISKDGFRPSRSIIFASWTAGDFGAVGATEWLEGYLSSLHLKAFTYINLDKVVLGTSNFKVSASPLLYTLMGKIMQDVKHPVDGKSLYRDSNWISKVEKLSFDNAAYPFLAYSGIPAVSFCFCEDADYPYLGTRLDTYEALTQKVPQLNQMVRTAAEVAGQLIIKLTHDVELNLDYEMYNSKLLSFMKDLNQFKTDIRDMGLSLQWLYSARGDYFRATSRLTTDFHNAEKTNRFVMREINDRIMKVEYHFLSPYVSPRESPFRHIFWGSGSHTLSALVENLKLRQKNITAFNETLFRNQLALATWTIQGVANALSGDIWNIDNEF

binding result [1]: no binding (tested: 250 nM)
B1: chimeric ANTIBODY-A mAb (RabANTIBODY-A, bivalent huIgG1) (antibody, V domains shown)
VH: QSLEESGGGLVQPGASLTLTCKASGIDFSSSGYMCWVRQAPGKGLEWIGCIYTYSSNTYYASWAKGRFTISKTSSTTVTLQMTSLTAADTATYFCARGTYGYTGYTYTMGYFSLWGPGTLVTVSS
VL: ELDMTQTPASVEAAVGGTVTIKCQASQNINSYLAWYQQKPGQPPKLLIYRASTLASGVPSRFKGSGSGTEFTLTISDLECADAATYYCQSYYYSGSSNYNAFGGGTELEIL
notes: rabbit variable regions with a human IgG1 framework, bivalent huIgG1; also called RabAB-A

binding result [1]: no binding (tested: 250 nM)
B2: chimeric ANTIBODY B mAb (RabANTIBODY-B, bivalent huIgG1) (antibody, V domains shown)
VH: QSLEESGGGLVQPEGSLTLTCKASGFSFSNSYWICWVRQAPGKGLEWIGCINTDADSTNYASWARGRFTISKTSSTTVTLQMTSLTAADTASYFCARQNNVFDPGYNLWGPGTLVTVSS
VL: ELVLTQTPASVSEAVGGTVTIKCQASQNIGSNLAWYQQKPGQPPKLLIYDASKLASGVPSRFSGSGSGTEFTLTISDLECADAATYYCQCTVRGGAYGNAFGGGTEVVVK
notes: rabbit variable regions with a human IgG1 framework, bivalent huIgG1; also called rabAB-B

binding result [2]: no binding
B3: TfR1 ANTIBODY-A HC-H2C hIgG4Fab/LC-L0 hKappa (ΔC214) (Fab, V domains shown)
VH: QSLVESGGGLVQPGGSLRLSCAASGIDFSSSGYMCWVRQAPGKGLEWVGCIYTYSSNTYYAASVKGRFTISKTSSTTVYLQMNSLKTEDTAVYYCARGTYGYTGYTYTMGYFSLWGQGTLVTVSS
VL: DIQMTQSPSTLSASVGDRVTITCQASQNINSYLAWYQQKPGKAPKLLIYRASSLESGVPSRFSGSGSGTEFTLTISSLQPDDFATYYCQSYYYSGSSNYNAFGGGTKVEIKR
notes: also called exemplary antibody (ii)
